Source: PMC9482650, “Quantitative fragmentomics allow affinity mapping of interactomes” (Nature Communications, 2022)

B1: ADAM22, Q9P0K1 (peptide)
chain: QSARLWETSI
B2: FLVCR1, Q9Y5Y0 (peptide)
chain: MLSKQSESAI

Target: T1, DLG3_2, Q92796
T1 sequence (Q92796 221-321, limits assumed, looked up): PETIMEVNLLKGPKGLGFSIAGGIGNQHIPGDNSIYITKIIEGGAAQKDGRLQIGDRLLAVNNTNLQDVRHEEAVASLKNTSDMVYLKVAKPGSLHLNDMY
Test: holdup assay
Set-up: key: below the threshold = too weak to quantify, mostly under pKd 3.1 to 4
Settings: plain residues with an end cap or a label only (N-terminal biotin on a linker: ado-ado)

With B1 as the binder, how does the pKd read?
Its pKd is 4.32.

How did the pKd turn out when B2 was run?
Its pKd is 3.68.

Target: GRASP, Q7Z6J2
Sequence (Q7Z6J2 96-193): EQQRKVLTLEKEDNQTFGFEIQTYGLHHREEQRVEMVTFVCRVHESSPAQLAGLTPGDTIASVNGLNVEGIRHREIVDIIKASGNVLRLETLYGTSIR
Test: holdup assay
Set-up: key: below the threshold = too weak to quantify, mostly under pKd 3.1 to 4
Settings: plain residues with an end cap or a label only (N-terminal biotin on a linker: ado-ado)

For B1, which pKd is on record?
The pKd was 4.17.

B2 was tested. Which pKd did it give?
Its pKd is “below the threshold”.

Target: MAGI1_2, Q96QZ7
Sequence (Q96QZ7 456-580): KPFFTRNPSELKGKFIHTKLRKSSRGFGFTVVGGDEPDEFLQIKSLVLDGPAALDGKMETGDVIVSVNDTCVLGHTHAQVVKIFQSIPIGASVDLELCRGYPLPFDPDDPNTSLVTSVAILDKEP
Test: holdup assay
Set-up: key: below the threshold = too weak to quantify, mostly under pKd 3.1 to 4
Settings: plain residues with an end cap or a label only (N-terminal biotin on a linker: ado-ado)

For B1, which pKd is on record?
Its pKd is “below the threshold”.

B2 was tested. Which pKd did it give?
The pKd was “below the threshold”.

Target: MAGI2_2, Q86UL8
Sequence (Q86UL8 410-522): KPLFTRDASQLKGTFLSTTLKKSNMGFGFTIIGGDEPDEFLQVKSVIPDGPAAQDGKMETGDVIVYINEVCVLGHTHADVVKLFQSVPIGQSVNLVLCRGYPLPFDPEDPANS
Test: holdup assay
Set-up: key: below the threshold = too weak to quantify, mostly under pKd 3.1 to 4
Settings: plain residues with an end cap or a label only (N-terminal biotin on a linker: ado-ado)

With B1 as the binder, how does the pKd read?
Its pKd is 3.72.

With B2 as the binder, how does the pKd read?
The pKd was 3.8.

Target: T2, MPP6, Q9NZW5
T2 sequence (Q9NZW5 125-219, limits assumed, looked up): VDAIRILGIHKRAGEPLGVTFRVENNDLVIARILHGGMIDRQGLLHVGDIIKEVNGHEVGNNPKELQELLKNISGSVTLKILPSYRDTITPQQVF
Test: holdup assay
Set-up: key: below the threshold = too weak to quantify, mostly under pKd 3.1 to 4
Settings: plain residues with an end cap or a label only (N-terminal biotin on a linker: ado-ado)

For B1, which pKd is on record?
The pKd was “below the threshold”.

With B2 as the binder, how does the pKd read?
The pKd was “below the threshold”.

Target: T3, GRIP1_5, Q9Y3R0
T3 sequence (Q9Y3R0 568-668, limits assumed, looked up): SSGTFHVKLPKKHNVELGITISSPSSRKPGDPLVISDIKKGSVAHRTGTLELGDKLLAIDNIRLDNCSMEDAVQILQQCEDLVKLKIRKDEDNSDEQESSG
Test: holdup assay
Set-up: key: below the threshold = too weak to quantify, mostly under pKd 3.1 to 4
Settings: plain residues with an end cap or a label only (N-terminal biotin on a linker: ado-ado)

Which pKd does the source give for B1 here?
The pKd was “below the threshold”.

How did the pKd turn out when B2 was run?
The pKd was “below the threshold”.

Target: T4, RADIL, Q96JH8
T4 sequence (Q96JH8 971-1071, limits assumed, looked up): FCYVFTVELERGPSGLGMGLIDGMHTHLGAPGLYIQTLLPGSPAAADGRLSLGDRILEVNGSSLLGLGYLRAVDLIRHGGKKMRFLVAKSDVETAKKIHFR
Test: holdup assay
Set-up: key: below the threshold = too weak to quantify, mostly under pKd 3.1 to 4
Settings: plain residues with an end cap or a label only (N-terminal biotin on a linker: ado-ado)

B1 was tested. Which pKd did it give?
The pKd was 3.71.

B2 was tested. Which pKd did it give?
The pKd was “below the threshold”.

Target: GORASP2, Q9H8Y8
Test: holdup assay
Set-up: key: below the threshold = too weak to quantify, mostly under pKd 3.1 to 4
Settings: plain residues with an end cap or a label only (N-terminal biotin on a linker: ado-ado)

With B1 as the binder, how does the pKd read?
The pKd was 3.55.

With B2 as the binder, how does the pKd read?
The pKd was “below the threshold”.

Target: DLG4_3, P78352
Sequence (P78352 306-403): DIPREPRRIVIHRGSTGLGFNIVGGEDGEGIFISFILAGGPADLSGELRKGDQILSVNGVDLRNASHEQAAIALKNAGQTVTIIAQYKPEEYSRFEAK
Test: holdup assay
Set-up: key: below the threshold = too weak to quantify, mostly under pKd 3.1 to 4
Settings: plain residues with an end cap or a label only (N-terminal biotin on a linker: ado-ado)

Which pKd does the source give for B1 here?
The pKd was 4.23.

B2 was tested. Which pKd did it give?
The pKd was “below the threshold”.

Target: SCRIB_2, Q14160
Sequence (Q14160 857-960): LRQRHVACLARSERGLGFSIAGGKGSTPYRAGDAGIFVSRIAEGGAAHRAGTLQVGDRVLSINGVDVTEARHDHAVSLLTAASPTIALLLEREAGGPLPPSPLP
Test: holdup assay
Set-up: key: below the threshold = too weak to quantify, mostly under pKd 3.1 to 4
Settings: plain residues with an end cap or a label only (N-terminal biotin on a linker: ado-ado)

B1 was tested. Which pKd did it give?
The pKd was 4.71.

How did the pKd turn out when B2 was run?
The pKd was 3.55.

Target: T5, LIN7A, O14910
T5 sequence (O14910 103-200, limits assumed, looked up): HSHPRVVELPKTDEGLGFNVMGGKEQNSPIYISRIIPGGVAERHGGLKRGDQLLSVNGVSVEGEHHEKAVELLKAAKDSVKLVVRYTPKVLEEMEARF
Test: holdup assay
Set-up: key: below the threshold = too weak to quantify, mostly under pKd 3.1 to 4
Settings: plain residues with an end cap or a label only (N-terminal biotin on a linker: ado-ado)

For B1, which pKd is on record?
The pKd was 3.69.

Which pKd does the source give for B2 here?
The pKd was “below the threshold”.

Target: T6, SIPA1L2, Q9P2F8
T6 sequence (Q9P2F8 945-1036, limits assumed, looked up): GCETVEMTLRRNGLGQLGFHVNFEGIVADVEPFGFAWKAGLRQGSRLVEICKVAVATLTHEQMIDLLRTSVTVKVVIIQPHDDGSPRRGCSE
Test: holdup assay
Set-up: key: below the threshold = too weak to quantify, mostly under pKd 3.1 to 4
Settings: plain residues with an end cap or a label only (N-terminal biotin on a linker: ado-ado)

For B1, which pKd is on record?
Its pKd is “below the threshold”.

With B2 as the binder, how does the pKd read?
The pKd was “below the threshold”.

Target: GOPC, Q9HD26
Test: holdup assay
Set-up: key: below the threshold = too weak to quantify, mostly under pKd 3.1 to 4
Settings: plain residues with an end cap or a label only (N-terminal biotin on a linker: ado-ado)

Which pKd does the source give for B1 here?
The pKd was 4.42.

With B2 as the binder, how does the pKd read?
The pKd was “below the threshold”.

Target: TJP2_1, Q9UDY2
Sequence (Q9UDY2 24-128): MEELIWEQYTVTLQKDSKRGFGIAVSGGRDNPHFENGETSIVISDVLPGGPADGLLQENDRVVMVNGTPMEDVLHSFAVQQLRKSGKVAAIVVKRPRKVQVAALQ
Test: holdup assay
Set-up: key: below the threshold = too weak to quantify, mostly under pKd 3.1 to 4
Settings: plain residues with an end cap or a label only (N-terminal biotin on a linker: ado-ado)

With B1 as the binder, how does the pKd read?
The pKd was “below the threshold”.

Which pKd does the source give for B2 here?
The pKd was “below the threshold”.

Target: LDB3, O75112
Sequence (O75112 1-94): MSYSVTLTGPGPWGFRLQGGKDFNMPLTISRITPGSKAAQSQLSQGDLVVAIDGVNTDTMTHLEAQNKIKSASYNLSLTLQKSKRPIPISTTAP
Test: holdup assay
Set-up: key: below the threshold = too weak to quantify, mostly under pKd 3.1 to 4
Settings: plain residues with an end cap or a label only (N-terminal biotin on a linker: ado-ado)

B1 was tested. Which pKd did it give?
The pKd was “below the threshold”.

With B2 as the binder, how does the pKd read?
Its pKd is “below the threshold”.

Target: T7, ARHGEF11, O15085
T7 sequence (O15085 42-136, limits assumed, looked up): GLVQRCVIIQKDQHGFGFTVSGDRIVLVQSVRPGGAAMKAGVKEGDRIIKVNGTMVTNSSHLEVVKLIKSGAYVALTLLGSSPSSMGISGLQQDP
Test: holdup assay
Set-up: key: below the threshold = too weak to quantify, mostly under pKd 3.1 to 4
Settings: plain residues with an end cap or a label only (N-terminal biotin on a linker: ado-ado)

For B1, which pKd is on record?
Its pKd is 3.79.

How did the pKd turn out when B2 was run?
The pKd was “below the threshold”.

Target: T8, SHANK1, Q9Y566
T8 sequence (Q9Y566 658-767, limits assumed, looked up): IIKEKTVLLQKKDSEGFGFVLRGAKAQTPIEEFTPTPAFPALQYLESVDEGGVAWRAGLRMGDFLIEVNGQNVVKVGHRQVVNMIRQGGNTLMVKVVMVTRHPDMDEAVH
Test: holdup assay
Set-up: key: below the threshold = too weak to quantify, mostly under pKd 3.1 to 4
Settings: plain residues with an end cap or a label only (N-terminal biotin on a linker: ado-ado)

With B1 as the binder, how does the pKd read?
Its pKd is 3.72.

With B2 as the binder, how does the pKd read?
Its pKd is “below the threshold”.

Target: SCRIB_3, Q14160
Sequence (Q14160 999-1103): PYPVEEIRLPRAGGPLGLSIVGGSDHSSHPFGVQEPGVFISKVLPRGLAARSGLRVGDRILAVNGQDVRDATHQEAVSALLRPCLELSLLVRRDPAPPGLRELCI
Test: holdup assay
Set-up: key: below the threshold = too weak to quantify, mostly under pKd 3.1 to 4
Settings: plain residues with an end cap or a label only (N-terminal biotin on a linker: ado-ado)

With B1 as the binder, how does the pKd read?
The pKd was 5.32.

How did the pKd turn out when B2 was run?
Its pKd is 4.61.

Target: MAGI3_2, Q5TCQ9
Sequence (Q5TCQ9 398-503): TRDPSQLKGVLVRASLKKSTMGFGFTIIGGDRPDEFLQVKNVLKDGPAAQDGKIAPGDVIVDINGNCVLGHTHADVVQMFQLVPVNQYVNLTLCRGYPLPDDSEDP
Test: holdup assay
Set-up: key: below the threshold = too weak to quantify, mostly under pKd 3.1 to 4
Settings: plain residues with an end cap or a label only (N-terminal biotin on a linker: ado-ado)

B1 was tested. Which pKd did it give?
Its pKd is 4.22.

With B2 as the binder, how does the pKd read?
Its pKd is 4.45.

Target: DLG1_3, Q12959
Test: holdup assay
Set-up: key: below the threshold = too weak to quantify, mostly under pKd 3.1 to 4
Settings: plain residues with an end cap or a label only (N-terminal biotin on a linker: ado-ado)

B1 was tested. Which pKd did it give?
The pKd was 4.66.

With B2 as the binder, how does the pKd read?
The pKd was 3.77.

Target: TJP1_2, Q07157
Sequence (Q07157 181-274): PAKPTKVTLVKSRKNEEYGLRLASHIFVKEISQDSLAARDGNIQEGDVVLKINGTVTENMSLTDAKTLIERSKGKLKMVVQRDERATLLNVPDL
Test: holdup assay
Set-up: key: below the threshold = too weak to quantify, mostly under pKd 3.1 to 4
Settings: plain residues with an end cap or a label only (N-terminal biotin on a linker: ado-ado)

How did the pKd turn out when B1 was run?
Its pKd is “below the threshold”.

B2 was tested. Which pKd did it give?
The pKd was “below the threshold”.

Target: DLG1_1, Q12959
Test: holdup assay
Set-up: key: below the threshold = too weak to quantify, mostly under pKd 3.1 to 4
Settings: plain residues with an end cap or a label only (N-terminal biotin on a linker: ado-ado)

B1 was tested. Which pKd did it give?
Its pKd is 4.21.

For B2, which pKd is on record?
The pKd was “below the threshold”.

Target: FRMPD3, Q5JV73
Sequence (Q5JV73 12-100): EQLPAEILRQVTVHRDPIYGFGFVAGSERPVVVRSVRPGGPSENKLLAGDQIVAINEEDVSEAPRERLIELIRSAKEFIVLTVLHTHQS
Test: holdup assay
Set-up: key: below the threshold = too weak to quantify, mostly under pKd 3.1 to 4
Settings: plain residues with an end cap or a label only (N-terminal biotin on a linker: ado-ado)

With B1 as the binder, how does the pKd read?
Its pKd is “below the threshold”.

With B2 as the binder, how does the pKd read?
The pKd was “below the threshold”.

Target: T9, DLG3_1, Q92796
T9 sequence (Q92796 125-227, limits assumed, looked up): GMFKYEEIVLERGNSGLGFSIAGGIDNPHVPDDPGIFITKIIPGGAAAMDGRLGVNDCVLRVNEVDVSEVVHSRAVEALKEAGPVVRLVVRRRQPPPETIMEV
Test: holdup assay
Set-up: key: below the threshold = too weak to quantify, mostly under pKd 3.1 to 4
Settings: plain residues with an end cap or a label only (N-terminal biotin on a linker: ado-ado)

How did the pKd turn out when B1 was run?
Its pKd is “below the threshold”.

How did the pKd turn out when B2 was run?
Its pKd is “below the threshold”.

Target: AHNAK1, Q09666
Sequence (Q09666 4-100): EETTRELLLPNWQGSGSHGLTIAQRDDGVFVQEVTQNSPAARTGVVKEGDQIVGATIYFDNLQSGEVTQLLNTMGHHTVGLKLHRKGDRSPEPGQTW
Test: holdup assay
Set-up: key: below the threshold = too weak to quantify, mostly under pKd 3.1 to 4
Settings: plain residues with an end cap or a label only (N-terminal biotin on a linker: ado-ado)

Which pKd does the source give for B1 here?
Its pKd is “below the threshold”.

How did the pKd turn out when B2 was run?
Its pKd is “below the threshold”.

Target: PDLIM1, O00151
Sequence (O00151 1-87): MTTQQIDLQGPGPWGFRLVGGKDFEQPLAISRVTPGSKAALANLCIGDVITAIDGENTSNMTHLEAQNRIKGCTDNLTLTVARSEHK
Test: holdup assay
Set-up: key: below the threshold = too weak to quantify, mostly under pKd 3.1 to 4
Settings: plain residues with an end cap or a label only (N-terminal biotin on a linker: ado-ado)

B1 was tested. Which pKd did it give?
Its pKd is “below the threshold”.

Which pKd does the source give for B2 here?
Its pKd is “below the threshold”.

Target: IL16_1, Q14005
Sequence (Q14005 210-306): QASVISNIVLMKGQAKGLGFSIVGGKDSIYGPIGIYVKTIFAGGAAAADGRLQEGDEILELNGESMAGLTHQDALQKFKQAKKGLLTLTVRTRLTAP
Test: holdup assay
Set-up: key: below the threshold = too weak to quantify, mostly under pKd 3.1 to 4
Settings: plain residues with an end cap or a label only (N-terminal biotin on a linker: ado-ado)

With B1 as the binder, how does the pKd read?
Its pKd is 3.68.

With B2 as the binder, how does the pKd read?
The pKd was “below the threshold”.

Target: DLG4_2, P78352
Sequence (P78352 155-259): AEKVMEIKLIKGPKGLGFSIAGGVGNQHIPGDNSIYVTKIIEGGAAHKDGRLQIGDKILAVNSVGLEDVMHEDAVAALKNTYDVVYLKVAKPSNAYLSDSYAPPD
Test: holdup assay
Set-up: key: below the threshold = too weak to quantify, mostly under pKd 3.1 to 4
Settings: plain residues with an end cap or a label only (N-terminal biotin on a linker: ado-ado)

How did the pKd turn out when B1 was run?
The pKd was 4.18.

Which pKd does the source give for B2 here?
The pKd was 3.84.
